Kd, FACS binding and FACS fold reduction compared to PP WT data for 2 molecules are collected here from patent publication US20240092898A1.

Assay [1] has as its target CD33 (human) (UniProt P20138). Description: SPR. For orientation: SPR reads the build-up and loss of mass on a sensor chip optically.
Assay [2] has as its target CD7 on cells (human) (UniProt P09564). Description: flow cytometry on cells; cell line and unit not stated.
Assay [3] shares this target. Kind of assay: flow cytometry on cells; ratio to 7-PP-1 WT. (Flow cytometry measures light scatter and fluorescence of single cells or particles in a stream.)

Chain of CD7 on cells (human) (P09564 26-240): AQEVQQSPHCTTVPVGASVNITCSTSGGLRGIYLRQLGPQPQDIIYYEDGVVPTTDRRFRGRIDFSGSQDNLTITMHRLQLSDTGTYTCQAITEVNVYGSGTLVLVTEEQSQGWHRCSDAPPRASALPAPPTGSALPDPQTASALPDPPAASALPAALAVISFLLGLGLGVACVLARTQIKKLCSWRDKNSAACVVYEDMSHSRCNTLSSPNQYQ
Chain of CD33 (human) (P20138 18-259 limits assumed): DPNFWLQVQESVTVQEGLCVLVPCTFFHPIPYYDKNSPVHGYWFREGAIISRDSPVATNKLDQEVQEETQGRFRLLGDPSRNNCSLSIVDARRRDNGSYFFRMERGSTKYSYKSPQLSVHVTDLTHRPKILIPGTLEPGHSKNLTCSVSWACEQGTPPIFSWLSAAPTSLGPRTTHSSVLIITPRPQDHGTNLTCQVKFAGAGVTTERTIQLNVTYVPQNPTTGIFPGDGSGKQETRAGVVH

B1: CD33-PP-1-WT (Fab, from another filing, V domains shown)
VH: EVQLVQSGAEVKKPGSSVKVSCKASGYTITDSNIHWVRQAPGQSLEWIGYIYPYNGGTDYNQKFKNRATLTVDNPTNTAYMELSSLRSEDTAFYYCVNGNPWLAYWGQGTLVTVSS
VL: DIQLTQSPSTLSASVGDRVTIICRASESLDNYGIRFLTWFQQKPGKAPKLLMYAASNQGSGVPSRFSGSGSGTEFTLTISSLQPDDFATYYCQQTKEVPWSFGQGTKLEIK
A word on the Kd: it is the concentration at which binding is half-saturated. Low readings indicate higher affinity, high ones lower affinity. In turn, B1 showed a dissociation constant (Kd) in assay [1] of 1.36 nM.

B2: CD7-PP-7 (Fab, V domains shown)
VH: QVQLQESGAELVKPGASVKLSCKASGYTFTSYWMHWVKQRPGQGLEWIGKINPSNGGTNYNEKFKSKATLTVDKSSSTAYMQLSSLTSEDSAVYYCARGGVYYDLYYAALDYWGQGTTVTVSS
VL: DIELTQSPATLSVTPGDSVSLSCRASQSISNNLHWYQQKSHESPRLLIKSASQSISGIPSRFSGSGSGTDFTLSINSVETEDFGMYFCQQSNSWPYTFGGGTKLEIKR
As for B2, in assay [2], the FACS binding came out at 267. Moreover, in assay [3], the FACS fold reduction compared to PP WT is 502 fold.
